Test results as given in patent publication US20250320295A1 (INHIBRX BIOSCIENCES, published 2025).
Changes are numbered by the printed parent chain. Values belong to the binder of their own block, whether it stands above or below them.

Experiments:
IL-2 receptor = target: T1, IL-2 receptor (human, UniProt P01589 22-272; P14784 27-551; P31785 23-369); assay: cell-based or functional assay
T1 sequence (looked up) 1: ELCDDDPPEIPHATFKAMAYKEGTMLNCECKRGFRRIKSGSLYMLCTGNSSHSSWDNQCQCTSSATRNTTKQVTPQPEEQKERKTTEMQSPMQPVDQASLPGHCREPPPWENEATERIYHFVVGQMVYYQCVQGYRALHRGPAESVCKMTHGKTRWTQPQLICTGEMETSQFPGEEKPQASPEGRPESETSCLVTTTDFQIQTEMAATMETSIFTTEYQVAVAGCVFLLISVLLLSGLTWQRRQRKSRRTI
T1 sequence (looked up) 2: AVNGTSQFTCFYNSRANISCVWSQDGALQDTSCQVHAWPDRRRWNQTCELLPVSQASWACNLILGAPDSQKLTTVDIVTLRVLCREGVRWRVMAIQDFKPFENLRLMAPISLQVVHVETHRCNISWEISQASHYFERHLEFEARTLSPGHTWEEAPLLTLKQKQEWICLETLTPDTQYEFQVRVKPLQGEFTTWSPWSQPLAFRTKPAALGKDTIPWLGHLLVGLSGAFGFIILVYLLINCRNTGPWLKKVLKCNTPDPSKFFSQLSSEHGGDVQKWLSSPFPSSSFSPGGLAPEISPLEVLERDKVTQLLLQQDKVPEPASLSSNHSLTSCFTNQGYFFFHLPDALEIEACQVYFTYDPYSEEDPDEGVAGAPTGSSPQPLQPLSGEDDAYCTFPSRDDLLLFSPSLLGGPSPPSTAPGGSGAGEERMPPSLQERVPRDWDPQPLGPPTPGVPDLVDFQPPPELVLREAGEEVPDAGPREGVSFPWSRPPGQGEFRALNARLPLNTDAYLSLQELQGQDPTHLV
T1 sequence (looked up) 3: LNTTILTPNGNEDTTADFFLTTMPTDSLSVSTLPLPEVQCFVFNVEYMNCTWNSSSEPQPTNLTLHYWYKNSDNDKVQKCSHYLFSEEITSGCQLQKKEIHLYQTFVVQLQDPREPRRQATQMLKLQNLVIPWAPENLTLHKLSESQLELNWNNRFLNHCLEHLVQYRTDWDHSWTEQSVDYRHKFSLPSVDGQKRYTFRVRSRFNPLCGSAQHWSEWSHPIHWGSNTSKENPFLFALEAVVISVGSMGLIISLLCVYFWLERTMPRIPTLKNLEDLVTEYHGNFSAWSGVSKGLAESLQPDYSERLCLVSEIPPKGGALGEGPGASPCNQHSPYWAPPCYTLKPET

Cynomolgus monkey CD8a [1] = target: T2, Cynomolgus monkey CD8a (cynomolgus monkey); assay: flow cytometry, cynomolgus PBMC, PI-CD3+CD4- gate
T2 construct: whole, on cells; On transfected HEK293F cells (full length) or natively on cynomolgus PBMC T cells; also called cynomolgus CD8a-FL; cynomolgus monkey CD8α
Protocol: (§1) Binding of four polypeptides comprising a humanized CD8a-binding VHH domain fused to an xELL fc region was assessed by flow cytometry on isolated human T cells and on isolated human or cynomolgus monkey peripheral blood mononuclear cells (PBMC). The isolated cells were plated in a 96-well plate at 200,000 cells per well for cynomolgus monkey PBMC, and 100,000 cells per well for human T cells in FACS buffer (PBS, 1% BSA, 0.1% NaN₃, pH 7.4). […] FACS buffer alone was used as a secondary antibody-only control. Polypeptide dilutions were added to an equal volume of cells, and assay plates were incubated for 30 minutes at 4° C. After washing twice with 150 μL of FACS buffer per well, the cells were resuspended in FACS buffer with a fluorescently labeled anti-human IgG antibody diluted 1:1000 to detect CD8α binding, fluorescently labeled anti-CD3 antibody (clone SP34.2, 1:50, for PBMC preparations only), and fluorescently labeled anti-CD4 antibody (clone OKT4, 1:100). Propidium iodide (PI) was added at 1:2000 to distinguish live cells from dead cells. Assay plates were incubated at 4° C. for 30 minutes. After one additional wash with 150 μL of FACS buffer CD8α binding was detected by flow cytometry on PI−(CD3+) CD4− cells. Binding was measured on these cell populations as mean fluorescence intensity (MFI) at 647 nm. Flow cytometric detection was performed on an ACEA Biosciences Novocyte-Quanteon Flow Cytometer. The data were plotted and analyzed using GraphPad Prism analysis software. The results are shown in Table 12 and 13 and in FIGS. 10A-D.

Cynomolgus monkey CD8a [2] = target: T2, Cynomolgus monkey CD8a; assay: flow cytometry on CD8 T cells (PI- CD3+ CD4-) within cynomolgus monkey PBMC, fluorescent anti-human IgG secondary, MFI at 647 nm
Protocol: as §1, with “Flow cytometric detection was performed on an ACEA Biosciences Novocyte-Quanteon Flow Cytometer.” left out, “The results are shown in Table 12 and 13 and in FIGS. 10A-D.” left out

Human CD8a = target: T3, Human CD8a (human, UniProt P01732 22-235); assay: flow cytometry, isolated human T cells, PI-CD4- gate (table title says transfected HEK293F cells)
T3 construct: also called CD8α; human CD8a-FL
Protocol: Binding of polypeptides comprising a humanized CD8a-binding VHH domain, an Fc region, and, in certain polypeptides, a mutated, attenuated IL-2 fused to the C-terminus of the Fc region, was assessed by flow cytometry on isolated human T cells. […] Complexes or polypeptides that are not labeled “KiH” form homodimers under physiologic conditions. The isolated cells were plated in a 96-well plate at 50,000 cells per well in FACS buffer (PBS, 1% BSA, 0.1% NaN₃, pH 7.4). Test polypeptides were then diluted to 2× the final concentration of 200 nM, and a 5-fold serial dilution was made. FACS buffer with no polypeptide was used as a secondary antibody-only control. Test polypeptides were added to an equal volume of cells, and assay plates were incubated for 30 minutes at 4° C. After washing twice with 150 μL of FACS buffer per well, the cells were resuspended in FACS buffer with a fluorescently-labeled anti-human IgG antibody diluted 1:1000 to detect CD8α binding and fluorescently labeled anti-CD4 antibody (clone OKT4, 1:200). Propidium iodide (PI) was added at 1:2000 to distinguish live cells from dead cells. Assay plates were incubated at 4° C. for 30 minutes. After one additional wash with 150 μL of FACS buffer, polypeptide bound to CD8α was detected by flow cytometry on PI-CD4− and on PI-CD4+ cells. Binding was measured on these cell populations as mean fluorescence intensity (MFI) at 647 nm. Flow cytometric detection was performed on an ACEA Biosciences Novocyte-Quanteon Flow Cytometer. The data were plotted and analyzed using GraphPad Prism analysis software.

T3 sequence (P01732 22-235): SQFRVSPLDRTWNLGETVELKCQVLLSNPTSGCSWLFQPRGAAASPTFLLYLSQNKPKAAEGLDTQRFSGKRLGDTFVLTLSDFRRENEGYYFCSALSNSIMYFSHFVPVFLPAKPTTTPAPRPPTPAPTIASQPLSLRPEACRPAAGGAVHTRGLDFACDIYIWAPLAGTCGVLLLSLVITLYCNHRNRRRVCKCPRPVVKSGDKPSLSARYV

Bmax (MFI) (Human CD8a): 272000 MFI
Kd (Human CD8a): 0.0884 nM
B4: hzB7v37-xELL-KiH Fc-IL-2 mutant (Fc fusion)
chain 1: QVQLVQSGGGEVKPGGSLRLSCAASGFTFDDYAMSWVRQAPGKGLEWVSTITWDAGGTYYAAPVKGRFTISRDNAKNTVYLQMSSLRAEDTAVYYCAKGSPELQYDTWGQGTLVTVKPDKTHTCPPCPAPGGPSVFLFPPKPKDTLMISRTPEVTCVVVDVSHEDPEVKFNWYVDGVEVHNAKTKPREEQYNSTYRVVSVLTVLHQDWLNGKEYKCKVSNKALPAPIEKTISKAKGQPREPQVCTLPPSRDELTKNQVSLSCAVKGFYPSDIAVEWESNGQPENNYKTTPPVLDSDGSFFLVSKLTVDKSRWQQGNVFSCSVMHEALHNRYTQKSLSLSPGK
chain 2: QVQLVQSGGGEVKPGGSLRLSCAASGFTFDDYAMSWVRQAPGKGLEWVSTITWDAGGTYYAAPVKGRFTISRDNAKNTVYLQMSSLRAEDTAVYYCAKGSPELQYDTWGQGTLVTVKPDKTHTCPPCPAPGGPSVFLFPPKPKDTLMISRTPEVTCVVVDVSHEDPEVKFNWYVDGVEVHNAKTKPREEQYNSTYRVVSVLTVLHQDWLNGKEYKCKVSNKALPAPIEKTISKAKGQPREPQVYTLPPCRDELTKNQVSLWCLVKGFYPSDIAVEWESNGQPENNYKTTPPVLDSDGSFFLYSKLTVDKSRWQQGNVFSCSVMHEALHNHYTQKSLSLSPG
notes: Knob-in-hole heterodimer: VHH on the N-terminus of each Fc, mutant IL-2 only on the knob Fc; not shown: mutant, attenuated IL-2 fused to the C-terminus of the knob Fc

Kd (Cynomolgus monkey CD8a [1]): 0.0499 nM
B6: hzB7v41-xELL-Fc (Fc fusion)
chain: B4 chain 1 with K13Q, K117R, C244Y, S261T, A263L, V302Y, R330H
notes: Homodimeric VHH-human IgG1 Fc xELL fusion

Kd (Human CD8a): 0.148 nM
B7: hzB7v39-xELL-KiH Fc-IL-2 mutant (Fc fusion)
chain 1: B4 chain 1 with D54S, G56E
chain 2: B4 chain 2 with D54S, G56E
notes: as for B4

Bmax (MFI) (Human CD8a): 76100 MFI
Kd (Human CD8a): 4.05 nM
B9: hzB7v34-xELL-KiH Fc-IL-2 mutant (Fc fusion)
chain 1: B4 chain 1 with K13Q, D54S, Y59D
chain 2: B4 chain 2 with K13Q, D54S, Y59D
notes: as for B4

Kd (Cynomolgus monkey CD8a [1]): 0.0236 nM
B10: hzB7v35-xELL-Fc (Fc fusion)
chain: B4 chain 1 with G56E, C244Y, S261T, A263L, V302Y, R330H
notes: as for B6

The next lines start with the binder.

B1: hzB7v31-xELL-KiH Fc-IL-2 mutant (Fc fusion)
chain 1: B4 chain 1 with K13Q
chain 2: B4 chain 2 with K13Q
EC50 of pSTAT5 induction in human CD8 T cells (IL-2 receptor): < 30 pM

B2: hzB7v29-xELL-Fc (Fc fusion)
chain: B4 chain 1 with K13Q, G56E, C244Y, S261T, A263L, V302Y, R330H
notes: as for B6
Kd (Cynomolgus monkey CD8a [1]): 0.0317 nM

B3: hzB7v31-xELL-Fc (Fc fusion)
chain: B4 chain 1 with K13Q, C244Y, S261T, A263L, V302Y, R330H
notes: Homodimeric VHH-human IgG1 Fc xELL fusion; also called CD8a-hzB7v31-Fc-xELL
EC50 (read off the curve) (Cynomolgus monkey CD8a [2]): ~0.05 nM
Kd (Cynomolgus monkey CD8a [1]): 0.0389 nM

B5: hzB7v30-xELL-KiH Fc-IL-2 mutant (Fc fusion)
chain 1: B4 chain 1 with K13Q, Y59D
chain 2: B4 chain 2 with K13Q, Y59D
notes: as for B4
Bmax (MFI) (Human CD8a): 247000 MFI
Kd (Human CD8a): 0.0943 nM

B8: hzB7v33-xELL-KiH Fc-IL-2 mutant (Fc fusion)
chain 1: B4 chain 1 with K13Q, D54S, G56E
chain 2: B4 chain 2 with K13Q, D54S, G56E
notes: as for B4
Kd (Human CD8a): 0.139 nM
